First the molecules themselves.
B1: WT human Gαi3 (natural protein)
chain: MGCTLSAEDKAAVERSKMIDRNLREDGEKAAKEVKLLLLGAGESGKSTIVKQMKIIHEDGYSEDECKQYKVVVYSNTIQSIIAIIRAMGRLKIDFGEAARADDARQLFVLAGSAEEGVMTPELAGVIKRLWRDGGVQACFSRSREYQLNDSASYYLNDLDRISQSNYIPTQQDVLRTRVKTTGIVETHFTFKDLYFKMFDVGGQRSERKKWIHCFEGVTAIIFCVALSDYDLVLAEDEEMNRMHESMKLFDSICNNKWFTETSIILFLNKKDLFEEKIKRSPLTICYPEYTGSNTYEEAAAYIQCQFEDLNRRKDTKEIYTHFTCATDTKNVQFVFDAVTDVIIKNNLKECGLY
modifications: lipidated N-terminus
B2: human CaSR (residues 20-894), wild-type construct FLAG-CaSR (receptor, UniProt P41180 20-894, looked up)
chain: YGPDQRAQKKGDIILGGLFPIHFGVAAKDQDLKSRPESVECIRYNFRGFRWLQAMIFAIEEINSSPALLPNLTLGYRIFDTCNTVSKALEATLSFVAQNKIDSLNLDEFCNCSEHIPSTIAVVGATGSGVSTAVANLLGLFYIPQVSYASSSRLLSNKNQFKSFLRTIPNDEHQATAMADIIEYFRWNWVGTIAADDDYGRPGIEKFREEAEERDICIDFSELISQYSDEEEIQHVVEVIQNSTAKVIVVFSSGPDLEPLIKEIVRRNITGKIWLASEAWASSSLIAMPQYFHVVGGTIGFALKAGQIPGFREFLKKVHPRKSVHNGFAKEFWEETFNCHLQEGAKGPLPVDTFLRGHEESGDRFSNSSTAFRPLCTGDENISSVETPYIDYTHLRISYNVYLAVYSIAHALQDIYTCLPGRGLFTNGSCADIKKVEAWQVLKHLRHLNFTNNMGEQVTFDECGDLVGNYSIINWHLSPEDGSIVFKEVGYYNVYAKKGERLFINEEKILWSGFSREVPFSNCSRDCLAGTRKGIIEGEPTCCFECVECPDGEYSDETDASACNKCPDDFWSNENHTSCIAKEIEFLSWTEPFGIALTLFAVLGIFLTAFVLGVFIKFRNTPIVKATNRELSYLLLFSLLCCFSSSLFFIGEPQDWTCRLRQPAFGISFVLCISCILVKTNRVLLVFEAKIPTSFHRKWWGLNLQFLLVFLCTFMQIVICVIWLYTAPPSSYRNQELEDEIIFITCHEGSLMALGFLIGYTCLLAAICFFFAFKSRKLPENFNEAKFITFSMLIFFIVWISFIPAYASTYGKFVSAVEVIAILAASFGLLACIFFNKIYIILFKPSRNTIEEVRCSTAAHAFKVAARATLRRSNV

In data set [1] the target is B2. The experiment in a line: cryo-EM structure.
The data set “cryo-EM structure” concerns the molecule itself. The experiment in a line: cryo-EM structure.

B1: the binding result in data set [1] is recorded as “binds”. A word on the stoichiometry N: it is the number of molecules, sites or subunits per partner or assembly. Take B2: the “stoichiometry N” value in the data set “cryo-EM structure” turned out to be 2.

The values are drawn from article PMC11929605 (Nature, 2024).
